Positions count from the first letter of the chain named. Blank lines part the entries; values can stand above or below the binder they belong to.
Key:
[1] = molecular target: T1, murine OX40-His (Crown, Cat#: E3350-B1707) (mouse, UniProt P47741 20-211); assay: ELISA
T1 construct: bought protein; also called mouse OX40-his; muOX40-his; not shown: His tag
T1 sequence: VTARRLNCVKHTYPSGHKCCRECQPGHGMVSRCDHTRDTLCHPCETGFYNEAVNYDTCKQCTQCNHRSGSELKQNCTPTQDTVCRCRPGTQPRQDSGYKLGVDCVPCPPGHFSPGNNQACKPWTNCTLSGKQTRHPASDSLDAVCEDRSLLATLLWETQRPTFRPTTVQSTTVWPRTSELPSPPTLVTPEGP

[2] = molecular target: T2, recombinant human OX40-his (Sino Biological, Cat#:10481-H03H) (human, UniProt P43489 29-214); assay: ELISA on coated human OX40-His, OD450
T2 construct: bought protein; also called hOX40-his; not shown: His tag
T2 sequence: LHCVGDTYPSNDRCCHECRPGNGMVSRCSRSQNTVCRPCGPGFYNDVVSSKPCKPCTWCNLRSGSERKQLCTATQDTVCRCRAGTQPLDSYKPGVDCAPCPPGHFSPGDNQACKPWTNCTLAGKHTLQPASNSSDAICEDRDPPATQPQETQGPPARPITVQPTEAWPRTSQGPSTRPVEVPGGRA

[3] = molecular target: T3, recombinant rhesus OX40-his (Sino Biological, Cat#:90846-C08H) (rhesus monkey, UniProt P43489 29-214 (human entry)); assay: ELISA on coated rhesus OX40-His, OD450
T3 construct: bought protein; also called monkey OX40-his; rhOX40-his; not shown: His tag
T3 chain: T2 sequence with H16Q, S29N, S50A, P55A, L70P, A145P, I159T, G173R, G183R, R185P

[4] = molecular target: T2, recombinant human OX40-his (Sino …); assay: SPR Biacore 8K, OX40-His on chip, antibody injected
Method: SPR assays were used to determine the binding affinity of the chimetic or humanized anti-OX40 antibodies to human OX40 with the BIAcore™ 8K instrument (GE Life Sciences). Briefly, 100-200 response units (RU) of human OX40-His protein (Sino Biological, CN, Cat#:10481-H03H, Lot no.: MA08MA3003) were coupled to CM5 biosensor chips (Cat#: BR-1005-30, GE Life Sciences), followed by blocking of un-reacted groups with 1M ethanolamine. Serially diluted antibodies at concentrations ranging from 0.3 µM to 10 µM were injected into the SPR running buffer (HBS-EP buffer, pH7.4, GE Life Sciences; US; Cat#:BR-1006-69) at 30 µL/minute. The binding capacitity was calculated with the RUs of blank controls subtracted. The association rate (k_a) and dissociation rate (k_d) were calculated using the one-to-one Langmuir binding model (BIA Evaluation Software, GE Life Sciences). The equilibrium dissociation constant K_D was calculated as the k_d/k_a ratio.

[5] = molecular target: T4, rhesus OX40 expressed on HEK293A cells (rhesus, UniProt P43489 29-277 (human entry)); assay: FACS on HEK293A/rhesus OX40 cells, MFI (panel without title; monkey OX40 by the legend)
T4 construct: also called HEK293A/rhOX40; HEK293A/rhesusOX40 cells
T4 chain: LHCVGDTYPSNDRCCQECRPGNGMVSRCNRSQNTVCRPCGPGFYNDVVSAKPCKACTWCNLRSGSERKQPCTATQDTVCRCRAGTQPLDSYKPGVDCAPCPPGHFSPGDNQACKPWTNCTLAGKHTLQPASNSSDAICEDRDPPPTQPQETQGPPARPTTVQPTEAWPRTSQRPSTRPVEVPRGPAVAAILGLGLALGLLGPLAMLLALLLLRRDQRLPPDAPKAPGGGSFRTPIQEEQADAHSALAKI
Method: (§1) Briefly, 10^5 HEK293A cells were seeded into each well of the 96-well plates and serially diluted anti-OX40 antibodies were added to the plates. After incubated at 4° C. for 1 hour, plates were washed 3 times with PBST. Then, an APC coupled Goat Anti-Mouse IgG (BioLegen, US, Cat#: 405308) diluted 500× was added to the plates. After incubation at 4° C. for 1 hour, the plates were washed with PBS for 3 times and then cell fluorescence was monitored using a FACS machine (BD).
Example 15 Humanized Anti-OX40 Antibodies Bound to Human or Rhesus OX40 Expressed on HEK293A Cells The humanized anti-OX40 antibodies were also tested for their ability of binding to HEK293A/huOX40 cells or HEK293A/rhOX40 cells, following the FACS analysis protocol as described in Example 5.

[6] = molecular target: T5, human OX40 expressed on HEK293A cells (human, UniProt P43489 29-277); assay: FACS on HEK293A cells
T5 construct: also called HEK293A/huOX40; HEK293A/human OX40 cells
T5 sequence: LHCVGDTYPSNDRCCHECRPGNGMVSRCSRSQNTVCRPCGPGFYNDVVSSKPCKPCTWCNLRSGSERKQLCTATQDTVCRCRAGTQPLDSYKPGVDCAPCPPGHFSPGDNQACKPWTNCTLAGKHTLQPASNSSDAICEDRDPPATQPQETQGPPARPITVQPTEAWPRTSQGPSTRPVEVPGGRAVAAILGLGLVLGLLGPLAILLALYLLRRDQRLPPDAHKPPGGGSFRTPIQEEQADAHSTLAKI
Method: as §1

[7] = molecular target: T4, rhesus OX40 expressed on HEK293A cells; assay: FACS on HEK293A cells
Method: as §1

[8] = molecular target: T6, human OX40-CD40 fusion protein on HEK-Blue reporter cells (human); assay: cell-based or functional assay
T6 chain: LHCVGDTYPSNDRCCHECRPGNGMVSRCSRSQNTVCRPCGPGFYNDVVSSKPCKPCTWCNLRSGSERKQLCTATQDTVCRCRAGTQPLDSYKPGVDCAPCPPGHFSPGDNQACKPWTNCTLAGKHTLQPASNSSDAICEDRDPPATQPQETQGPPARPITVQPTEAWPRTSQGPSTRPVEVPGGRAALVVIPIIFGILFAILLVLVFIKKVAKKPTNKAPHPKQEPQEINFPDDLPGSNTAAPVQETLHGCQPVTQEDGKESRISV

[9] = molecular target: T2, recombinant human OX40-his (Sino …); assay: ELISA, coated hOX40-his
Method: (§2) ELISA plates were coated with 500 ng/ml human OX40-his (used in Example 2) at 4° C. overnight. The wells were blocked with 200 µl of blocking buffer (PBS containing 1% BSA, 1% goat serum, 0.05% Tween 20) for 2 hours at room temperature, and then 100 µl of serially diluted anti-OX40 antibodies (starting from 40 µg/ml) were added to each well and incubated for 1 hour at RT. Plates were washed for 3 times with PBST (PBS+0.05% Tween 20), added with Goat-anti-mouse IgG-HRP (Simga, US, Cat#: A9309-1 ml) diluted 5000×, and incubated for 1 hour at RT. Plates were developed with freshly prepared Ultra-TMB (BD, US, Cat#: 555214) for 5 minutes at RT. Absorbance was read on a SpectraMax® i3× (Molecular Devies, US) at 450 nm.

[10] = molecular target: T7, mouse OX40 expressed on HEK293A cells (mouse, UniProt P47741 20-272); assay: FACS on HEK293A/muOX40 cells
T7 construct: also called HEK293A/muOX40; HEK293A/mouseOX40 cells
T7 sequence: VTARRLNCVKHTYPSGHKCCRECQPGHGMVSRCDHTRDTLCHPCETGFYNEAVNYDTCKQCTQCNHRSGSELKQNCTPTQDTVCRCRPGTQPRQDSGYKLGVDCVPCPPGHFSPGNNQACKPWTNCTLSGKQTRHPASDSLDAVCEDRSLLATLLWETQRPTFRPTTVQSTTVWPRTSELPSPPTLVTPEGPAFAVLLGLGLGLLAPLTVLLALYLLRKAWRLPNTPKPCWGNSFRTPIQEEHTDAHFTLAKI
Method: as §1

[11] = molecular target: T1, murine OX40-His (Crown, Cat#: …); assay: ELISA, coated muOX40-his
[12] = molecular target: T3, recombinant rhesus OX40-his (Sino …); assay: ELISA, coated rhOX40-his
Method: as §2
Species-cross-reactivity of the 33 OX40 mAbs to monkey or mouse OX40 was further assessed by direct ELISA. Briefly, 500 ng/ml monkey OX40-his or mouse OX40-his (used in Example 2) was coated on 96-well ELISA plates followed by incubation with 100 µl of serially diluted anti-OX40 antibodies (starting from 40 µg/ml). Goat anti-mouse IgG (Sigma, US, Cat#:A9309-1 ml) conjugated with HRP was used then.

[13] = molecular target: T5, human OX40 expressed on HEK293A cells; assay: FACS on HEK293A/huOX40 cells
[14] = molecular target: T4, rhesus OX40 expressed on HEK293A cells; assay: FACS on HEK293A/rhOX40 cells
[15] = molecular target: T1, murine OX40-His (Crown, Cat#: …); assay: ELISA on coated mouse OX40-His, OD450

binding result [1]: no binding | EC50 (read off the curve) [2]: ~0.003 µg/mL | EC50 (read off the curve) [3]: ~0.003 µg/mL | Kd [4]: 37.2 nM | koff [4]: 0.00871 s⁻¹ | kon [4]: 234000 M⁻¹ s⁻¹ | binding result [5]: binds
B1: 71H8-VH3VL2 (antibody, human IgG1, kappa, V domains shown)
VH: QVQLVQSGAEVKKPGASVKVSCKVSGYTFTSYWITWVRQRPGQGLEWIGDIYPGSGSTNQNEKFKSRVTLTVDTSTDTAYMELSSLRSEDTAVYYCATLRPYYFVYWGQGTLVTVSS
VL: DIQMTQSPSSLSASVGDRVTITCRASQDISNYLNWYQQKPGKTPKLLIYYTSRLLSGVPSRFSGSGSGTDYTLTISSLQPEDFATYYCQQGNTLPLTFGQGTRLEIKR
notes: humanized; also called 71H8-H3L2

EC50 [6]: 0.406 µg/mL | EC50 [7]: 0.253 µg/mL | EC50, agonistic activity in HEK-Blue assay [8]: 0.274 µg/mL | EC50 [9]: 0.0415 µg/mL | binding result [10]: no binding | EC50 [12]: 0.05 µg/mL
B2: 6A12 (murine monoclonal antibody) (antibody, V domains shown)
VH: QVQLQQSGPELVKPGASVKISCKASGYAFSSSWMNWVKQRPGKGLEWIGRIYPGDGITNYNGNFKGKATLTADKSSSTAYMQLSGLTSADSAVYFCAREFIPLGWGTGTTVTVSS
VL: DIVMTQTPFSNPVTLGTSASISCRSSKSLLHSNGITYLYWYLQKPGQSPQLLIYQMSNLASGVPDRFSSSGSGTDFTLRISRVEAEDVGVYYCAQNLELPWTFGGGTKLEIK
binding result [11]: no binding (tested: serial dilution from 40 µg/ml)

EC50 [6]: 0.113 µg/mL | EC50 [7]: 0.095 µg/mL | EC50, agonistic activity in HEK-Blue assay [8]: 0.0866 µg/mL | EC50 [9]: 0.0483 µg/mL | binding result [10]: no binding | EC50 [12]: 0.06 µg/mL
B3: 68C8 (murine monoclonal antibody) (antibody, V domains shown)
VH: QVQLQQSGAELVKPGASVKMSCKASGDTFTSYWITWVKQRPGQGLEWIGDIHPGSGSTNNNEKFKNKATLTVDTSSSTAYMQLSSLTSEDSAVYYCAKLRPYYFVYWGQGTTLTVSS
VL: DIQMTQTTSSLSASLGDRVTISCRASQDISNYLNWYQQKPDGTVKLLIYYTSRLLSGVPSRFSGSGSGTDYSLTISNLEQEDIATYFCQQGNTLPLTFGAGTRLELK
binding result [11]: no binding (tested: serial dilution from 40 µg/ml)

EC50 [13]: 0.144 µg/mL | EC50 [14]: 0.151 µg/mL | EC50 (read off the curve) [2]: ~0.003 µg/mL | binding result [15]: no binding (tested: 10000 ng/ml (log 4)) | EC50 (read off the curve) [3]: ~0.003 µg/mL | Kd [4]: 0.158 nM | koff [4]: 8.28e-05 s⁻¹ | kon [4]: 525000 M⁻¹ s⁻¹
B4: chimeric antibody 71H8 (antibody, human IgG1, kappa, V domains shown)
VH: B3 VH with D27Y, H52Y, N60Q, N66S
VL: DIQMTQTPSSLSASLGDRVTISCRASQDISNYLNWYQQKPDGTVKLLIYYTSRLLSGVPSRFSGSGSGTDYSLTISNLEQEDIATYFCQQGNTLPLTFGAGTKLELKR
notes: mouse variable regions with human IgG1/kappa constant regions

EC50 [6]: 0.113 µg/mL | EC50 [7]: 0.126 µg/mL | EC50, agonistic activity in HEK-Blue assay [8]: 0.0494 µg/mL | EC50 [9]: 0.052 µg/mL | binding result [10]: no binding | EC50 [12]: 0.0501 µg/mL
B5: 71H8 (murine monoclonal antibody) (antibody, V domains shown)
VH: B3 VH with D27Y, H52Y, N60Q, N66S
VL: B3 VL with T8P, R103K
binding result [11]: no binding (tested: serial dilution from 40 µg/ml)

— patent US10442866 (BEIJING MABWORKS BIOTECH, dated 2019)
